Results published in patent US20150231220A1 (GREEN CROSS, published 2015).

Columns and labels:
[1] = target: EGFR coated on the plate (competitive binding test) (UniProt P00533); test: competitive ELISA on plate-coated EGFR; competitor GC1118 at […]; antibody:ligand molar ratio 1:10^4; remaining antibody binding
[2] = target: EGFR coated on the plate (competitive binding test) (UniProt P00533); test: competitive ELISA on plate-coated EGFR; competitor GC1118 at […]; antibody:ligand molar ratio 1:10^5; remaining antibody binding
[3] = target: EGFR coated on the plate (competitive binding test) (UniProt P00533); test: competitive ELISA on plate-coated EGFR; competitor cetuximab at […]; antibody:ligand molar ratio 1:10^4; remaining antibody binding
[4] = target: EGFR coated on the plate (competitive binding test) (UniProt P00533); test: competitive ELISA on plate-coated EGFR; competitor cetuximab at […]; antibody:ligand molar ratio 1:10^5; remaining antibody binding
[5] = target: T1, EGFR coated on the plate (competitive binding test) (UniProt P00533 25-645, limits assumed); test: competitive ELISA on plate-coated EGFR; competitor GC1118 at 1.5 nM; antibody:ligand molar ratio 1:10^4; remaining antibody binding
[6] = target: T1, EGFR coated on the plate (competitive …); test: competitive ELISA on plate-coated EGFR; competitor GC1118 at 1.5 nM; antibody:ligand molar ratio 1:10^5; remaining antibody binding
[7] = target: T1, EGFR coated on the plate (competitive …); test: competitive ELISA on plate-coated EGFR; competitor cetuximab at 1.5 nM; antibody:ligand molar ratio 1:10^4; remaining antibody binding
[8] = target: T1, EGFR coated on the plate (competitive …); test: competitive ELISA on plate-coated EGFR; competitor cetuximab at 1.5 nM; antibody:ligand molar ratio 1:10^5; remaining antibody binding

Antibody binding (%) [1]	Antibody binding (%) [2]	Antibody binding (%) [3]	Antibody binding (%) [4]	Antibody binding (%) [5]	Antibody binding (%) [6]	Antibody binding (%) [7]	Antibody binding (%) [8]	Molecule
99.6%	99.9%	96.6%	99.9%					Amphiregulin (from UniProt P15514 101-198) (ligand)
				65.1%	31.2%	96.2%	76.1%	Heparin-binding EGF-like growth factor (ligand, human, UniProt Q99075 63-148, looked up, also called HB-EGF) DLQEADLDLLRVTLSSKPQALATPNKEEHGKRKKKGKGLGKKRDPCLRKYKDFCIHGECKYVKELRAPSCICHPGYHGERCHGLSL
				40.4%	18.9%	80.2%	51.1%	β-Cellulin (ligand, human, UniProt P35070 32-111, looked up, also called BTC; betacellulin) DGNSTRSPETNGLLCGDPEENCAATTTQSKRKGHFSRCPKQYKHYCIKGRCRFVVAEQTPSCVCDEGYIGARCERVDLFY
